According to patent US20250243290A1:
Where “and” joins values, the source holds several entries; their conditions need not be identical. Equal entries are not always repeated. Where two headings read alike, the source gives them in different places.

Columns and labels:
Experiment in all cases: peptide-array ELISA [Con't]
2LSCGSR2…2T = molecular target: 2LSCGSR2…2T
CTV2DS2…2TSTSPTRC = molecular target: CTV2DS2…2TSTSPTRC
[1] = molecular target: 2LS2…2…
[2] = molecular target: KQEGCRL2…2…
…2R [3] = molecular target: …2R
CQA2TREQNRI2T2…2RLC [4] = molecular target: CQA2TREQNRI2T2…2RLC
[5] = molecular target: …2…
[6] = molecular target: QEGCRL2…
KQEG2…2APGTFSN = molecular target: KQEG2…2APGTFSN
…2N = molecular target: …2N
…22SK2CNASMDAV2TSTSPTRC = molecular target: …22SK2CNASMDAV2TSTSPTRC
NRI2…2RL = molecular target: NRI2…2RL
[7] = molecular target: C22SK2…2CNASMDAV2TSTSPTRC
V2…2NV = molecular target: V2…2NV
…2LS2…2TSTSPTRC = molecular target: …2LS2…2TSTSPTRC
E2LS2…2…2 = molecular target: E2LS2…2…2
2TREQNRI2…2RL = molecular target: 2TREQNRI2…2RL
2LS2…2R = molecular target: 2LS2…2R
[8] = molecular target: C22SK2…2CAPLRK2…
[9] = molecular target: DI2…
LS2…2…2 = molecular target: LS2…2…2
[10] = molecular target: C2LS2GSR2…2…
…2TREQNRI2T2RPC = molecular target: …2TREQNRI2T2RPC
[11] = molecular target: CGWY2ALSKQEG2RL2CQA2TREQNRI2T2RPC
NWVPE2…2T2 = molecular target: NWVPE2…2T2
[12] = molecular target: DVV2…
CLSKQEG2RL2…2TREQNRIC = molecular target: CLSKQEG2RL2…2TREQNRIC
[13] = molecular target: CQA2TREQNRI2T2RPCQA2TREQNRI2T2RPC
…2TSTSPTRC = molecular target: …2TSTSPTRC
[14] = molecular target: C2T2RPGWY2…2…
[15] = molecular target: CAV2…2…
…2R [16] = molecular target: …2R; remark: listed apart in the source
CQA2TREQNRI2T2…2RLC [17] = molecular target: CQA2TREQNRI2T2…2RLC; remark: listed apart in the source
2LS2…2…2 = molecular target: 2LS2…2…2
[18] = molecular target: …22SK2CAPLRK2…
[19] = molecular target: CLSKQEG2RL2APLRKCQA2TREQNRI2T2RPC
[20] = molecular target: …2…; remark: listed apart in the source
VPE2LS2…2R = molecular target: VPE2LS2…2R
[21] = molecular target: 2…
CAPLRK2…2TSTSPTRC = molecular target: CAPLRK2…2TSTSPTRC
PE2LS2…2R = molecular target: PE2LS2…2R
[22] = molecular target: C22SK2…2CQA2TREQNRI2T2RPC
CQTAQM22SK2…2TSTSPTRC = molecular target: CQTAQM22SK2…2TSTSPTRC
[23] = molecular target: 2LSCGSR2…
2TREQNRI2…2R = molecular target: 2TREQNRI2…2R
[24] = molecular target: CTSSTDI2RPHQI2NVCAPLRK2…
QNRI2…2R = molecular target: QNRI2…2R
[25] = molecular target: VPE2LSCGSR2…
REQNRI2…2RL = molecular target: REQNRI2…2RL
[26] = molecular target: DI2…; remark: listed apart in the source
CNASMDAV2…2TREQNRI2T2RPC = molecular target: CNASMDAV2…2TREQNRI2T2RPC
[27] = molecular target: CQTAQM22SK2…2…

Chain of QEGCRL2… (peptide, as listed by the source): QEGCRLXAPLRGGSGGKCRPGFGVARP
Chain of …2N (peptide, as listed by the source): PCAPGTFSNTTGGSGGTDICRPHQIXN
Chain of …2TSTSPTRC (peptide, as listed by the source): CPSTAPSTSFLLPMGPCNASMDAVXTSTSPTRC

Substance: agonistic TNFR2 antibody MR2-1
- Raw luminescence data (2LSCGSR2…2T): 176
- Raw luminescence data (CTV2DS2…2TSTSPTRC): 182
- Raw luminescence data [1]: 190
- Raw luminescence data [2]: 191
- Raw luminescence data (…2R [3]): 180
- Raw luminescence data (CQA2TREQNRI2T2…2RLC [4]): 178
- Raw luminescence data [5]: 180
- Raw luminescence data [6]: 173
- Raw luminescence data (KQEG2…2APGTFSN): 180
- Raw luminescence data (…2N): 175
- Raw luminescence data (…22SK2CNASMDAV2TSTSPTRC): 173
- Raw luminescence data (NRI2…2RL): 184
- Raw luminescence data [7]: 181
- Raw luminescence data (V2…2NV): 177
- Raw luminescence data (…2LS2…2TSTSPTRC): 188
- Raw luminescence data (E2LS2…2…2): 181
- Raw luminescence data (2TREQNRI2…2RL): 186
- Raw luminescence data (2LS2…2R): 181
- Raw luminescence data [8]: 191
- Raw luminescence data [9]: 174
- Raw luminescence data (LS2…2…2): 187
- Raw luminescence data [10]: 187
- Raw luminescence data (…2TREQNRI2T2RPC): 163
- Raw luminescence data [11]: 158
- Raw luminescence data (NWVPE2…2T2): 168
- Raw luminescence data [12]: 159
- Raw luminescence data (CLSKQEG2RL2…2TREQNRIC): 160
- Raw luminescence data [13]: 166
- Raw luminescence data (…2TSTSPTRC): 159
- Raw luminescence data [14]: 161
- Raw luminescence data [15]: 171
- Raw luminescence data (…2R [16]): 160
- Raw luminescence data (CQA2TREQNRI2T2…2RLC [17]): 171
- Raw luminescence data (2LS2…2…2): 167
- Raw luminescence data [18]: 168
- Raw luminescence data [19]: 158
- Raw luminescence data [20]: 166 and 165
- Raw luminescence data (VPE2LS2…2R): 170
- Raw luminescence data [21]: 170
- Raw luminescence data (CAPLRK2…2TSTSPTRC): 167
- Raw luminescence data (PE2LS2…2R): 162
- Raw luminescence data [22]: 158
- Raw luminescence data (CQTAQM22SK2…2TSTSPTRC): 164
- Raw luminescence data [23]: 157
- Raw luminescence data (2TREQNRI2…2R): 164
- Raw luminescence data [24]: 158
- Raw luminescence data (QNRI2…2R): 170
- Raw luminescence data [25]: 165
- Raw luminescence data (REQNRI2…2RL): 161
- Raw luminescence data [26]: 166
- Raw luminescence data (CNASMDAV2…2TREQNRI2T2RPC): 157
- Raw luminescence data [27]: 161
